What all share (assay): enzyme inhibition
The target of experiment [1] is T1, human plasma kallikrein (human, UniProt P03952 20-638).
The target of experiment [2] is T2, human factor Xa (human, UniProt P00742 41-179; P00742 235-488).
T2 chain 1: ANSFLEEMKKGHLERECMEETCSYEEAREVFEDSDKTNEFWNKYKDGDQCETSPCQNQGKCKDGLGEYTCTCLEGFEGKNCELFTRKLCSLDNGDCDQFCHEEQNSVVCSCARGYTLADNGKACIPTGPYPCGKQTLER
T2 chain 2: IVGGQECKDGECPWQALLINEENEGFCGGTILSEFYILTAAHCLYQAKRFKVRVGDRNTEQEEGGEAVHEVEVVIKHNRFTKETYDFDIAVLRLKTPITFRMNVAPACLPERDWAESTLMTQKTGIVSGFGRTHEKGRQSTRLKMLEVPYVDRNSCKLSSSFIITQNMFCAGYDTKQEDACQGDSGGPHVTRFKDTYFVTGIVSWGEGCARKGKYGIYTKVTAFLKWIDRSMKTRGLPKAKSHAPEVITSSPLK

The target of experiment [3] is T3, human factor XIIa (human, UniProt P00748 20-615, biotinylated with Biotin Ester (Zymed); sites not stated).
T3 chain: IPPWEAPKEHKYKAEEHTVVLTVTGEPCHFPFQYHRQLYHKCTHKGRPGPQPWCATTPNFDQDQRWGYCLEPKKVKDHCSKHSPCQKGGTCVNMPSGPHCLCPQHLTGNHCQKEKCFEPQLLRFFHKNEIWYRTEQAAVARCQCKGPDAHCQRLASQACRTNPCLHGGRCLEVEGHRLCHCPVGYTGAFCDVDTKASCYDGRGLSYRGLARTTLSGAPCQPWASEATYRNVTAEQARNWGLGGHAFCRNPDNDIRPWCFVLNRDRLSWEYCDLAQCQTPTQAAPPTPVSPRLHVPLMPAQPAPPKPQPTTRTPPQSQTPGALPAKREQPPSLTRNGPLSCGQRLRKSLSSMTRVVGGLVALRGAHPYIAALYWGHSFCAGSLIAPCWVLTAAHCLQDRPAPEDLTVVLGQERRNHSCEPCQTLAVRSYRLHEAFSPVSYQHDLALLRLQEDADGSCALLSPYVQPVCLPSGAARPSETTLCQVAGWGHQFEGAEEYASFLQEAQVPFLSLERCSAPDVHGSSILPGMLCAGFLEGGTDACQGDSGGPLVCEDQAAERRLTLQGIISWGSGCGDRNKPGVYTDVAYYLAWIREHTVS

Experiment [4] has as its target T1, human plasma kallikrein. The source holds these as a separate data set.
Experiment [5] addresses Plasmin.
Experiment [6] deals with T1, human plasma kallikrein. This is another data set of the same source.
For experiment [7], the target named is T3, human factor XIIa.
The target of experiment [8] is T2, human factor Xa.
Experiment [9] has as its target T1, human plasma kallikrein. This is another data set of the same source.
Experiment [10] addresses T2, human factor Xa.
The target of experiment [11] is T3, human factor XIIa.
For experiment [12], the target named is Plasmin. This is another data set of the same source.
The target in experiment [13] is Plasmin. This is another data set of the same source.

Like-named read-outs stand apart in the source and are kept apart here.

T1 sequence (P03952 20-638): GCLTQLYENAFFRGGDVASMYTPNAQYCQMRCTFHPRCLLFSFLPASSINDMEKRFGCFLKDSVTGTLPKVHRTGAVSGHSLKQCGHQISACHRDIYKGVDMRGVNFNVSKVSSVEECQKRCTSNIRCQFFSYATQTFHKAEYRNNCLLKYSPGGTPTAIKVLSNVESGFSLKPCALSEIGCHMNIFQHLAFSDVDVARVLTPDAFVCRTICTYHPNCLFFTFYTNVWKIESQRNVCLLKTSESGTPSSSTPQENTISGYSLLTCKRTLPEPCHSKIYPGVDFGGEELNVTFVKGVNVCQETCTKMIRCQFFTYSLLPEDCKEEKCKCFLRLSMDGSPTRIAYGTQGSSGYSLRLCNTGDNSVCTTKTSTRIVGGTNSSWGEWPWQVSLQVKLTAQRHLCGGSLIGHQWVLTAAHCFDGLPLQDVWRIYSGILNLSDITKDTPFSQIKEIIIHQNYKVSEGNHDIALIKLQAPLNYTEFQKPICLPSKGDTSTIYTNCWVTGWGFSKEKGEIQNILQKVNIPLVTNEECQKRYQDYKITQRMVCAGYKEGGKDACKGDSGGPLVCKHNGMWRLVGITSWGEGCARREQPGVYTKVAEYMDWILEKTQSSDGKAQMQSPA

B1: wild-type KPI (-4→57) (peptide)
chain: LDKREVVREVCSEQAETGPCRAMISRWYFDVTEGKCAPFFYGGCGGNRNNFDTEEYCMAVCGSAI
In general, Ki refers to the dissociation constant of the complex between target and ligand, obtained from inhibition or displacement. A lower Ki goes with a stronger hold on the target. Turning to B1, the Ki in the experiment with human plasma kallikrein [1] came out at 45 nM; in the experiment with human factor Xa [2] it was 161 nM; with human factor XIIa [3], 3720 nM; in the experiment with human plasma kallikrein [4], 45 nM.

B2: KPI (-4-57) (peptide)
chain: LDKREVVREVCSEQAETGPCRAMISRWYFDVTEGKCAPFFYGGCGGNRNNFDTEEYCMAVCGSAI
Consider B2, for which the inhibition constant Ki with Plasmin [5] turned out to be 34 nM.

B3: TW6202 (protein)
chain: EVVREVCSEQAETGPCRAGIWRWYFDVTEGKCAPFFYGGCGGNRNNFDTEEYCMAVCGSAI
Regarding B3, the inhibitory constant (Ki) stood at 128 nM in the experiment with human plasma kallikrein [6] and 1240 nM in the experiment with human factor XIIa [7].

B4: TW6169 (protein)
chain: EVVREVCSEQAETGPCRALILRWYFDVTEGKCAPFFYGGCGGNRNNFDTEEYCMAVCGSAI
In the case of B4, the Ki came to 1.2 nM with human plasma kallikrein [6], 111 nM with human factor Xa [8] and 619 nM with human factor XIIa [7].

B5: TW6167 (protein)
chain: EVVREVCSEQAEPGPCRAMISRWYFDVTEGKCAPFFYGGCGGNRNNFDTEEYCMAVCGSAI
As to B5, the Ki with human plasma kallikrein [1] came to 61 nM; with human factor Xa [2], 288 nM; in the experiment with human factor XIIa [3], 3640 nM.

B6: TW6186 (protein)
chain: EVVREVCSEQAETGPCRAMHSRWYFDVTEGKCAPFFYGGCYGNRNNFDTEEYCMAVCGSAI
Consider B6, for which the Ki with human plasma kallikrein [9] stood at 0.48 nM; with human factor Xa [10], 11 nM; with human factor XIIa [11], 186 nM.

B7: DD113 (protein)
chain: EVVREVCSEQAETGPCRALIPRWYFDVTEGKCAPFFYGGCGGNRNNFDTEEYCMAVCGSAI
Regarding B7, the values for the Ki with human plasma kallikrein [6], in the experiment with human factor Xa [8] and with human factor XIIa [7] were 0.85 nM, 74 nM and 293 nM, respectively.

B8: TW6189 (protein)
chain: EVVREVCSEQAETGPCRAMIWRWYFDVTEGKCAPFFYGGCYGNRNNFDTEEYCMAVCGSAI
For the molecule B8, the figures for the Ki in the experiment with human plasma kallikrein [9] and in the experiment with human factor Xa [10] were 4 nM and 34 nM, respectively.

B9: DD108 (protein)
chain: EVVREVCSEQAETGPCRAAISRWYFDVTEGKCAPFFYGGCGGNRNNFDTEEYCMAVCGSAI
For B9, the Ki in the experiment with human plasma kallikrein [1] is 1.7 nM; with human factor Xa [2] it was 123 nM; in the experiment with human factor XIIa [3] it was 1600 nM.

B10: TW6201 (protein)
chain: EVVREVCSEQAETGPCRAGIYRWYFDVTEGKCAPFFYGGCGGNRNNFDTEEYCMAVCGSAI
In the case of B10, the inhibitory constant (Ki) was 34.6 nM in the experiment with human plasma kallikrein [6] and 419 nM with human factor XIIa [7].

B11: TW6185 (peptide)
chain: EVVREVCSEQAETGPCRAMHWRWYFDVTEGKCAPFFYGGCGGNRNNFDTEEYCMAVCGSAI
B11 gave a Ki in the experiment with Plasmin [12] of 18.6 nM. This lies in the double-digit nanomolar range.

B12: BG003 (protein)
chain: EVVREVCSEQAETGPCRAMLHRWYFDVTEGKCAPFFYGGCGGNRNNFDTEEYCMAVCGSAI
With B12, the Ki came out at 36 nM with human plasma kallikrein [6] and 467 nM in the experiment with human factor XIIa [7].

B13: TW6188 (protein)
chain: EVVREVCSEQAETGPCRAMIYRWYFDVTEGKCAPFFYGGCYGNRNNFDTEEYCMAVCGSAI
On to B13, for which the values for the Ki in the experiment with human plasma kallikrein [9], with human factor Xa [10] and in the experiment with human factor XIIa [11] were 4 nM, 24 nM and 419 nM, respectively.

B14: DD110 (protein)
chain: EVVREVCSEQAETGPCRALISRWYFDVTEGKCAPFFYGGCGGNRNNFDTEEYCMAVCGSAI
Take B14: the inhibitory constant (Ki) was found to be 2.1 nM with human plasma kallikrein [1], 55 nM with human factor Xa [2] and 624 nM with human factor XIIa [3].

B15: TW6190 (protein)
chain: EVVREVCSEQAETGPCRAAISRWYFDVTEGKCAPFFYGGCYGNRNNFDTEEYCMAVCGSAI
As for B15, the Ki with human plasma kallikrein [6] came to 0.83 nM; with human factor Xa [8], 1400 nM; with human factor XIIa [7] it was 589 nM.

B16: TW6187 (protein)
chain: EVVREVCSEQAETGPCRAMIFRWYFDVTEGKCAPFFYGGCYGNRNNFDTEEYCMAVCGSAI
As for B16, the inhibition constant (Ki) with human plasma kallikrein [9] was determined as 3.8 nM; with human factor Xa [10], 15 nM; in the experiment with human factor XIIa [11], 92 nM.

B17: TW6203 (protein)
chain: EVVREVCSEQAETGPCRAGIPRWYFDVTEGKCAPFFYGGCGGNRNNFDTEEYCMAVCGSAI
For B17, the Ki came out at 31.2 nM with human plasma kallikrein [6] and 5040 nM in the experiment with human factor XIIa [7].

B18: DD185 (peptide)
chain: EVVREVCSEQAETGPCRAAIFRWYFDVTEGKCAPFFYGGCGGNRNNFDTEEYCMAVCGSAI
Consider B18, for which the affinity with Plasmin [13] corresponds to a Ki of 8.71 nM.

B19: DD114 (protein)
chain: EVVREVCSEQAETGPCRAAISRWYFDVTEGKCAPFFYGGCRGNRNNFDTEEYCMAVCGSAI
Consider B19, for which the inhibition constant Ki came out at 0.7 nM in the experiment with human plasma kallikrein [6] and 224 nM with human factor XIIa [7].

B20: DD109 (protein)
chain: EVVREVCSEQAETGPCRAIISRWYFDVTEGKCAPFFYGGCGGNRNNFDTEEYCMAVCGSAI
B20: the results for the Ki with human plasma kallikrein [1], with human factor Xa [2] and with human factor XIIa [3] were 9.5 nM, 421 nM and 1680 nM, respectively.

Source of the values: patent US6906033 (dated 2005).
